The target of experiment [1] is T1, Human chymotrypsin (Chtr) (human, UniProt P17538 19-263).
T1 construct: Bought
Nature of the experiment: residual protease activity against [I]o/[E]o, linear regression, x intercept. As for the experimental part: The stoichiometry of inhibition (SI) values were determined for the inhibition of rACTWT and its variants with hK2 and different other enzymes. An initial test was made with a molar excess of rACT (100 fold) over hK2, PSA, hK1, chymotrypsin (Chtr), plasma kallikrein (PK), urokinase (uPA) and human neutrophile elastase (HNE) enzymes. The reaction was carried out for 30 min at 25° C. (90 min at 37° C. for PSA) in reaction buffer (50 mM Tris pH 7.5, 150 mM NaCl, 0.05% Triton X-100, 0.01% BSA) and residual enzyme activity was measured by adding fluorescent substrates (Z-Phe-Arg-AMC for hK1, hK2 and PK, Suc-Ala-Ala-Pro-Phe-AMC for Chtr, Z-Gly-Gly-Arg-AMC for uPA, MeOSuc-Ala-Ala-Pro-Val-AMC for HNE, and CFP-TFRSA-YFP for PSA). Activity of enzyme in presence of inhibitors was compared to uninhibited reaction. For reactions where an inhibition was observed, SI was determined by incubating different concentrations of recombinant serpins. […]
In order to determine the SI values of all the recombinant variants, Applicants have incubated hK2 (5 nM) with different concentrations (6.25-500 nM) of rACT_{8.20} (x), rACT_{6.2} (□), rACT_{8.3} (Δ), rACT_{6.7} (⋄), rACT_{6.1} ( ), rACT_{5.18} (∘), rACTWT (+), at 25° C. for 30 min in reaction buffer. […] The SI was determined using linear regression analysis to extrapolate the I/E ratio (i.e. the x intercept).

Experiment [2] deals with urokinase plasminogen activator (uPA) (UniProt P00749 21-431, limits assumed). The experiment in a line: cell-based or functional assay.
In experiment [3] the target is human plasma kallikrein (PK) (human, UniProt P03952 20-638). Nature of the experiment: cell-based or functional assay.
Chain of human plasma kallikrein (PK) (P03952 20-638 limits assumed): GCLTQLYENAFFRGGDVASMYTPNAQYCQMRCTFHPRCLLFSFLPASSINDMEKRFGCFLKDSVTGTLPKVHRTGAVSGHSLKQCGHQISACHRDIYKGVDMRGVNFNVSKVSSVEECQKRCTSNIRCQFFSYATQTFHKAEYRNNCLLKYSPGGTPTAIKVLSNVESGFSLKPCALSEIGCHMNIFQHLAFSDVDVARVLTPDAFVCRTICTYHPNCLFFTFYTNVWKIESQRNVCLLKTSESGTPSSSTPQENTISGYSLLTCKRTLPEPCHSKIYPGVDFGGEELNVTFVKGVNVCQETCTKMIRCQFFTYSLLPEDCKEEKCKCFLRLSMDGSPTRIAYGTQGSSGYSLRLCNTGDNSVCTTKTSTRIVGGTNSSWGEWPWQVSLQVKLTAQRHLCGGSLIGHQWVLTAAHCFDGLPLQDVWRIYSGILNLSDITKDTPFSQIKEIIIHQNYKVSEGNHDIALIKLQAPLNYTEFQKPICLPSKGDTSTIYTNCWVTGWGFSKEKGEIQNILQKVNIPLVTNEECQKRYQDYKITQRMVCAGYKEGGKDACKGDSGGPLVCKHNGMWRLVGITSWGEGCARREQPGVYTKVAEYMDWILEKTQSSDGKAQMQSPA
Experiment [4] concerns the target human glandular kallikrein hK2 (human, UniProt P20151 25-261). Nature of the experiment: cell-based or functional assay.
The target of experiment [5] is T1, Human chymotrypsin (Chtr). The experiment in a line: cell-based or functional assay.
In the next experiment the target is human kallikrein hK1 (human, UniProt P06870 25-262). The experiment in a line: cell-based or functional assay.
Chain of human kallikrein hK1 (P06870 25-262): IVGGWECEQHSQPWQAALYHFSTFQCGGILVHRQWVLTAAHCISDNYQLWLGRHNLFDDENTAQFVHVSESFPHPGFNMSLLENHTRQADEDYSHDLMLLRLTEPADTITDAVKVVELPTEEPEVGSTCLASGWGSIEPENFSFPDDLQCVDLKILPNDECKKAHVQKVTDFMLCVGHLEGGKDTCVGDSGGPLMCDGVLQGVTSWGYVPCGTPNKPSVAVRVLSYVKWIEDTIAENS
The target of a further experiment is hK3 (PSA) (human, UniProt P07288 25-261). The experiment in a line: cell-based or functional assay.
Chain of hK3 (PSA) (P07288 25-261 limits assumed): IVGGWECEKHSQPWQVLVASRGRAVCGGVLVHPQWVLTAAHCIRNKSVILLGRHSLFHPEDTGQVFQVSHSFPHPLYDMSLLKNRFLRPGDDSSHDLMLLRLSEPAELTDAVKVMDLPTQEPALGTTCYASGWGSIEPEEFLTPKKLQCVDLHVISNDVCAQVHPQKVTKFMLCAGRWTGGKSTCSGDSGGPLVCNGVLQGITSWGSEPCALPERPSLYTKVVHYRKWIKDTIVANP
Experiment [6] concerns the target T2, human neutrophil elastase (HNE) (human, UniProt P08246 30-247, limits assumed).
T2 sequence (looked up): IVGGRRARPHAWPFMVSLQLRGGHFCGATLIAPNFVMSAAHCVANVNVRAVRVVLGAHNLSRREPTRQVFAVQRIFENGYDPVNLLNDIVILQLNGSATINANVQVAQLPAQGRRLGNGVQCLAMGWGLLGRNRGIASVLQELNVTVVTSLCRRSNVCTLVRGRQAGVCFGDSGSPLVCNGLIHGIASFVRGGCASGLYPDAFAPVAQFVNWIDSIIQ
The experiment in a line: cell-based or functional assay.

In a further experiment the target is Trypsin. The experiment in a line: inhibitory profile of MDCI; method as in example 1.

T1 sequence (P17538 19-263): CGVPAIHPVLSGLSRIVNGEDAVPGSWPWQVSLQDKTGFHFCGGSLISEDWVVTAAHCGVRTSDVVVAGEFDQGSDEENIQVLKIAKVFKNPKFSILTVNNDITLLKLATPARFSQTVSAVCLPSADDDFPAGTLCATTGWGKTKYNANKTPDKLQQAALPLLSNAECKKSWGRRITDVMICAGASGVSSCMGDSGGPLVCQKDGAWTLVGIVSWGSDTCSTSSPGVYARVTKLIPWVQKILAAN

B1: rACTWT (recombinant wild type α1-antichymotrypsin) (other, human)
chain: HHHHHHNSPLDEENLTQENQDRGTHVDLGLASANVDFAFSLYKQLVLKAPDKNVIFSPLSISTALAFLSLGAHNTTLTEILKGLKFNLTETSEAEIHQSFQHLLRTLNQSSDELQLSMGNAMFVKEQLSLLDRFTEDAKRLYGSEAFATDFQDSAAAKKLINDYVKNGTRGKITDLIKDLDSQTMMVLVNYIFFKAKWEMPFDPQDTHQSRFYLSKKKWVMVPMMSLHHLTIPYFRDEELSCTVVELKYTGNASALFILPDQDKMEEVEAMLLPETLKRWRDSLEFREIGELYLPKFSISRDYNLNDILLQLGIEEAFTSKADLSGITGARNLAVSQVVHKAVLDVFEEGTEASAATAVKITLLSALVETRTIVRFNRPFLMIIVPTDTQNIFFMSKVTNPKQA
notes: Serpin; Expressed in E. coli TG1 from pQE-9 with an N-terminal His tag; also called ACTWT (LL↓SA); wild type rACT
In the case of B1, the “SI (stoichiometry of inhibition)” value in experiment [1] was determined as 2. The “Inhibition % (residual enzyme activity, fluorescent substrate)” value was determined as 0% in [2]; 0% in [3]; 0% in experiment [4]; 100% in experiment [5]; 0% in the experiment with human kallikrein hK1; 15% in experiment [6]. Moreover, the “Inhibition % (residual enzyme activity, CFP-TFRSA-YFP substrate, 90 min at 37°)” value in the experiment with hK3 (PSA) came out at 80%.

B2: rACTPCI (MD CI) (designed binder)
chain: MRGSHHHHHHSRHPNSPLDEENLTQENQDRGTHVDLGLASANVDFAFSLYKQLVLKAPDKNVIFSPLSISTALAFLSLGAHNTTLTEILKGLKFNLTETSEAEIHQSFQHLLRTLNQSSDELQLSMGNAMFVKEQLSLLDRFTEDAKRLYGSEAFATDFQDSAAAKKLINDYVKNGTRGKITDLIKDLDSQTMMVLVNYIFFKAKWEMPFDPQDTHQSRFYLSKKKWVMVPMMSLHHLTIPYFRDEELSCTVVELKYTGNASALFILPDQDKMEEVEAMLLPETLKRWRDSLEFREIGELYLPKFSISRDYNLNDILLQLGIEEAFTSKADLSGITGARNLAVSQVVHKAVLDVFEEGTEASAATAVKITFRSALVETRTIVRFNRPFLMIIVPTDTQNIFFMSKVTNPKQA
B2 gave a kon with Trypsin of 1.13e+06 M⁻¹ s⁻¹.

One may read the kon as the second-order rate constant of association. A high value points to faster complex formation.

For the origin of these results see patent publication US20060269536A1 (UNIVERSITE DE LAUSANNE, published 2006).
